Measurements taken from US20220267438A1 (Janssen / Centocor, published 2022).
Like-named read-outs stand apart in the source and are kept apart here.

Key:
[1] = biological target: T1, human BCMA (B cell maturation antigen, TNFRSF17) on cells (human, UniProt Q02223 1-184); test: cell binding, H929 and MM.1R cells
T1 construct: whole, on cells; Target on H929 or MM.1R GPRC5D knockout cells, K562 cells expressing human BCMA, HEK293 cells of the cell microarray, and BCMA-only lymphoma lines; also called CD269; surface BCMA
T1 sequence (looked up): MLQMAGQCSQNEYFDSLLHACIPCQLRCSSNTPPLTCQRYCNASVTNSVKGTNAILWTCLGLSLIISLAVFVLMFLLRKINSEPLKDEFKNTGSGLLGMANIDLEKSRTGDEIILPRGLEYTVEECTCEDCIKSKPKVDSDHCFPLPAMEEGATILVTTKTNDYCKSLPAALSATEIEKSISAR

[2] = biological target: T1, human BCMA (B cell maturation antigen, …); test: cell binding, H929 and MM.1R cells; remark: listed apart in the source
[3] = biological target: T2, BCMW37 (recombinant human BCMA antigen) (human, UniProt Q02223 1-54, limits assumed); test: SPR; antigen BCMW37; parental BCMA binder as scFv
T2 construct: also called BCMA BCMW37 chain; human BCMA (SPR antigen)
T2 sequence (looked up): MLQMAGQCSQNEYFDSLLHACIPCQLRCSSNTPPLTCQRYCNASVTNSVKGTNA

[4] = biological target: T2, BCMW37 (recombinant human BCMA antigen); test: SPR
[5] = biological target: T3, human GPRC5D (G-protein coupled receptor family C group 5 member D) on cells (human, UniProt Q9NZD1 1-345); test: cell binding, H929 and MM.1R cells
T3 construct: Target on H929 or MM.1R BCMA knockout cells, K562 cells expressing human GPRC5D and HEK293 cells of the cell microarray
T3 sequence (Q9NZD1 whole entry): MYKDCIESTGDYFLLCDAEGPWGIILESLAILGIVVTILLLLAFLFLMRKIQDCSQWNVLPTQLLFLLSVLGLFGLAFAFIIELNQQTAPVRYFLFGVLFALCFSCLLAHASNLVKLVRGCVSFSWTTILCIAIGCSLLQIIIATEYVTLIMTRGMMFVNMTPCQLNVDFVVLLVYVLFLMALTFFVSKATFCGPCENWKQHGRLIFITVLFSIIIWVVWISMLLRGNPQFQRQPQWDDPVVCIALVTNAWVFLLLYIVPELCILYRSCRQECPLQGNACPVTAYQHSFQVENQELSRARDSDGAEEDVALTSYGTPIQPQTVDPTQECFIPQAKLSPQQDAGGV

[6] = biological target: T3, human GPRC5D (G-protein coupled …); test: cell binding, H929 and MM.1R cells; lower end of the range over H929 and MM.1R cells
[7] = biological target: T4, human CD3 (CD3ε of the TCR/CD3 complex) on primary human pan T cells (human, UniProt P07766 23-207); test: flow cytometry on T cells of donor D203727, with curve extrapolation
T4 construct: whole, on cells; On T cells CD3ε stands in the whole TCR/CD3 complex
T4 sequence (P07766 23-207, one chain of several): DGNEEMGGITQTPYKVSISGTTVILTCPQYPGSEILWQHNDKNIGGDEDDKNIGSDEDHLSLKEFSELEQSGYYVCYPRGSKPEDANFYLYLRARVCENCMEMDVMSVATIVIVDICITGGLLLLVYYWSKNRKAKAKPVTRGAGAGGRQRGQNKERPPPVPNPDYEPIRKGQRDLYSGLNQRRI
Method: (§1) Flow cytometry was used to evaluate the CD3 arm (i.e., CD3B376) binding of BGCB491 to CD3⁺ pan T cells from 7 different healthy human. Cell-based EC₅₀ for CD3B376 could not be determined due to lack of saturation kinetics at 1 hour (FIG. 26). Bioinformatic extrapolation was performed (FIG. 27) using the CD3B376×Null control antibody (i.e., GCDB381) molecule, which saturates within 2 μM top concentration dose-response to constrain the top of the non-linear regression curve to generate a full curve that enables estimation of ECₓ values (Table 21).

[8] = biological target: T4, human CD3 (CD3ε of the TCR/CD3 complex) …; test: flow cytometry on T cells of donor D327645, with curve extrapolation
Method: as §1

[9] = biological target: T5, cynomolgus monkey CD3 on peripheral blood mononuclear cells (cynomolgus monkey, UniProt Q95LI5 22-198); test: flow cytometry, cynomolgus monkey PBMCs
T5 construct: whole, on cells; also called cyno CD3
T5 sequence (Q95LI5 22-198): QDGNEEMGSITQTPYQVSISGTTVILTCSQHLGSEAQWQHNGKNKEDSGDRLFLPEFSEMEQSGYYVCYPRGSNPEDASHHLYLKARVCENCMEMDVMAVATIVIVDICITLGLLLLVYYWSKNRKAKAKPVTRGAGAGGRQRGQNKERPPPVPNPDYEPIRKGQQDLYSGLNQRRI
Method: The CD3-binding arm (i.e., CD3B376) binds to cynomolgus monkey CD3. Briefly, binding was measured by flow cytometry after incubating human and cynomolgus monkey peripheral blood mononuclear cells (PBMCs) with GCDB381 (i.e., CD3B376 Fab in bivalent IgG1-AAS antibody), CD3B891 (i.e., CD3B376×Null, IgG1-AAS bispecific antibody), or null control.

[10] = biological target: T4, human CD3 (CD3ε of the TCR/CD3 complex) …; test: flow cytometry on T cells of donor D316144, with curve extrapolation
Method: as §1

[11] = biological target: T1, human BCMA (B cell maturation antigen, …); test: cell-based or functional assay
[12] = biological target: T3, human GPRC5D (G-protein coupled …); test: cell-based or functional assay

B1: BCMB519 (parental anti-BCMA binder, tested as scFv) (scFv, V domains shown)
VH: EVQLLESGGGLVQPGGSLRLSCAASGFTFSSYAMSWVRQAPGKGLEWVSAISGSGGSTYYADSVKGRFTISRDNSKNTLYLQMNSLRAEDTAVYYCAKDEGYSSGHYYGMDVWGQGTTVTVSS
VL: EIVLTQSPGTLSLSPGERATLSCRASQSISSSFLTWYQQKPGQAPRLLIYGASSRATGIPDRFSGGGSGTDFTLTISRLEPEDFAVYYCQHYGSSPMYTFGQGTKLEIK
notes: Tested 'as scFv'; also called BCMA lead
[1]
  EC50: 2300 to 3200 pM
[2]
  EC50: 2300 to 3200 pM
[3]
  Kd: 280 pM
[4]
  Kd: 280 pM

B2: GC5B680 (parental anti-GPRC5D binder, tested as Fab) (Fab, V domains shown)
VH: QVTLKESGPVLVKPTETLTLTCTVSGFSLTNIRMSVSWIRQPPGKALEWLAHIFSNDEKSYSTSLKSRLTISRDTSKSQVVLTLTNVDPVDTATYYCARMRLPYGMDVWGQGTTVTVSS
VL: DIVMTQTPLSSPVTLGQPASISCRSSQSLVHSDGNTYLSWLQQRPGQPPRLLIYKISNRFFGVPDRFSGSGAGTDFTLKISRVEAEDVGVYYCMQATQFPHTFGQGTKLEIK
notes: Tested 'as Fab'; also called GPRC5d lead
[5]
  EC50: 6000 to 24000 pM
[6]
  EC50: 6000 to 24000 pM

B3: GCDB381 (CD3B376 Fab in bivalent IgG1-AAS antibody) (antibody, V domains shown)
VH: QVQLQQSGPRLVRPSQTLSLTCAISGDSVFNNNAAWSWIRQSPSRGLEWLGRTYYRSKWLYDYAVSVKSRITVNPDTSRNQFTLQLNSVTPEDTALYYCARGYSSSFDYWGQGTLVTVSS
VL: QSALTQPASVSGSPGQSITISCTGTSSNIGTYKFVSWYQQHPDKAPKVLLYEVSKRPSGVSSRFSGSKSGNTASLTISGLQAEDQADYHCVSYAGSGTLLFGGGTKLTVL
[7]
  EC50 (read off the curve): ~80000 pM
[8]
  EC50 (read off the curve): ~70000 pM
[9]
  binding result: binds
[10]
  EC50 (read off the curve): ~80000 pM

B4: Teclistamab (BCMA×CD3 bispecific antibody) (bispecific antibody)
chain 1: not shown
chain 2: SYVLTQPPSVSVAPGQTARITCGGNNIGSKSVHWYQQPPGQAPVVVVYDDSDRPSGIPERFSGSNSGNTATLTISRVEAGDEAVYYCQVWDSSSDHVVFGGGTKLTVLGQPKAAPSVTLFPPSSEELQANKATLVCLISDFYPGAVTVAWKGDSSPVKAGVETTTPSKQSNNKYAASSYLSLTPEQWKSHRSYSCQVTHEGSTVEKTVAPTECS
chain 3: EVQLVESGGGLVQPGGSLRLSCAASGFTFNTYAMNWVRQAPGKGLEWVARIRSKYNNYATYYAASVKGRFTISRDDSKNSLYLQMNSLKTEDTAVYYCARHGNFGNSYVSWFAYWGQGTLVTVSSASTKGPSVFPLAPCSRSTSESTAALGCLVKDYFPEPVTVSWNSGALTSGVHTFPAVLQSSGLYSLSSVVTVPSSSLGTKTYTCNVDHKPSNTKVDKRVESKYGPPCPPCPAPEAAGGPSVFLFPPKPKDTLMISRTPEVTCVVVDVSQEDPEVQFNWYVDGVEVHNAKTKPREEQFNSTYRVVSVLTVLHQDWLNGKEYKCKVSNKGLPSSIEKTISKAKGQPREPQVYTLPPSQEEMTKNQVSLTCLVKGFYPSDIAVEWESNGQPENNYKTTPPVLDSDGSFLLYSKLTVDKSRWQEGNVFSCSVMHEALHNHYTQKSLSLSLGK
chain 4: QTVVTQEPSLTVSPGGTVTLTCRSSTGAVTTSNYANWVQQKPGQAPRGLIGGTNKRAPGTPARFSGSLLGGKAALTLSGVQPEDEAEYYCALWYSNLWVFGGGTKLTVLGQPKAAPSVTLFPPSSEELQANKATLVCLISDFYPGAVTVAWKADSSPVKAGVETTTPSKQSNNKYAASSYLSLTPEQWKSHRSYSCQVTHEGSTVEKTVAPTECS
[11]
  CD3 T-cell activation EC50, H929-GPRC5D-KO: 253 pM
  CD3 T-cell activation EC50, H929-WT: 334 pM
  Cytotoxicity EC50, H929-GPRC5D-KO: 198 pM
  Cytotoxicity EC50, H929-WT: 275 pM

B5: Talquetamab (GPRC5D×CD3 bispecific antibody) (bispecific antibody)
chain 1: not shown
chain 2: DIQMTQSPSSLSASVGDRVTITCKASQNVATHVGWYQQKPGKAPKRLIYSASYRYSGVPSRFSGSGSGTEFTLTISNLQPEDFATYYCQQYNRYPYTFGQGTKLEIKRTVAAPSVFIFPPSDEQLKSGTASVVCLLNNFYPREAKVQWKVDNALQSGNSQESVTEQDSKDSTYSLSSTLTLSKADYEKHKVYACEVTHQGLSSPVTKSFNRGEC
chain 3: B4 chain 3
chain 4: B4 chain 4
[12]
  CD3 T-cell activation EC50, H929-BCMA-KO: 633 pM
  CD3 T-cell activation EC50, H929-WT: 233 pM
  Cytotoxicity EC50, H929-BCMA-KO: 761 pM
  Cytotoxicity EC50, H929-WT: 243 pM
